Starred links: 1 amine or outer side, 2 acyl side, 3 side chain; linkers in the order of their positions; H or OH if unused. Positions of bridges follow the written chain, without caps; N, C: chain ends. Non-standard residues stand in square brackets, D forms with d. Primed or numbered codes have the meaning given here. B5(15) = 2-amino-2-(pent-4-en-1-yl)hept-6-enoic acid (2,2-bis(4-pentenyl)glycine), stitching residue bearing two staples, C=CCCCC(CCCC=C)(N[*:1])C(=O)[*:2]; PyrS2″ = (S)-3-amino-1-((pent-4-en-1-yloxy)carbonyl)pyrrolidine-3-carboxylic acid (stapling residue), C=CCCCOC(=O)N1CC[C@@](N[*:1])(C(=O)[*:2])C1; B5(23) = 2-amino-2-(pent-4-en-1-yl)hept-6-enoic acid (2,2-bis(4-pentenyl)glycine), stitching residue, C=CCCCC(CCCC=C)(N[*:1])C(=O)[*:2]; B5(32) = 2-amino-2-(pent-4-en-1-yl)hept-6-enoic acid (bis-4-pentenylglycine, two alkene side chains), C=CCCCC(CCCC=C)(N[*:1])C(=O)[*:2]; PyrS2 = (S)-3-amino-1-((pent-4-en-1-yloxy)carbonyl)pyrrolidine-3-carboxylic acid, C=CCCCOC(=O)N1CC[C@@](N[*:1])(C(=O)[*:2])C1; B5(3) = 2,2-bis(4-pentenyl)glycine (stitching residue), C=CCCCC(CCCC=C)(N[*:1])C(=O)[*:2]; Phe(3-COOH) = N[C@@H](Cc1cccc(C(=O)O)c1)C(=O)O; Bta = N[C@@H](Cc1csc2ccccc12)C(=O)O; αAllylPro = C=CC[C@@]1(C(=O)O)CCCN1; tBuAla = CC(C)(C)C[C@H](N)C(=O)O; 3Thi = N[C@@H](Cc1ccsc1)C(=O)O; S8 = C=CCCCCCC[C@](C)(N)C(=O)O; hLeu = CC(C)CC[C@H](N)C(=O)O; PyrS2(4) = not defined here; hSer = N[C@@H](CCO)C(=O)O; Aib = CC(C)(N)C(=O)O

Sequences and labels used below:
T1: B-cat-Halo (beta-catenin HaloTag NanoBRET construct expressed in HEK293 cells) (UniProt P35222 1-781)
T1 sequence (looked up): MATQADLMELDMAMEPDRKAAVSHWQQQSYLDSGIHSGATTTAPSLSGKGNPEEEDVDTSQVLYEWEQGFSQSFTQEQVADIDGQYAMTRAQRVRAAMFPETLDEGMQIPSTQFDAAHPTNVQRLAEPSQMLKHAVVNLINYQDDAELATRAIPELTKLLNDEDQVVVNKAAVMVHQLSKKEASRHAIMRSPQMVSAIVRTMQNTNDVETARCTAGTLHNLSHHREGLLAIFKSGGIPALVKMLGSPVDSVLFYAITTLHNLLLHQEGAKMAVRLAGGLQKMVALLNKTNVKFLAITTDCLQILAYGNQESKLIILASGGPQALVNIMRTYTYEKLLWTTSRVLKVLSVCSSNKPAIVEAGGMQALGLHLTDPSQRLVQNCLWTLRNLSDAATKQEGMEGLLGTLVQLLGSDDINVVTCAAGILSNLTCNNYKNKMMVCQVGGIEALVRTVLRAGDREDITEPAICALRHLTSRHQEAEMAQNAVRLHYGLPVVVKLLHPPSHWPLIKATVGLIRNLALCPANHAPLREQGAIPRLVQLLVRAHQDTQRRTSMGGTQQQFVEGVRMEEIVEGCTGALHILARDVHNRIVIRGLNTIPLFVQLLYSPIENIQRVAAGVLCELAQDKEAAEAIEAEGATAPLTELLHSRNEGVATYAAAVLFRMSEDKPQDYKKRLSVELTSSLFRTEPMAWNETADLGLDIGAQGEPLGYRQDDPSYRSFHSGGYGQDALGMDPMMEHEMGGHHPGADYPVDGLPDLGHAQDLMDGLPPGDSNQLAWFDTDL

T2: B-cat-Halo (UniProt P35222 1-781)
T2 sequence (looked up): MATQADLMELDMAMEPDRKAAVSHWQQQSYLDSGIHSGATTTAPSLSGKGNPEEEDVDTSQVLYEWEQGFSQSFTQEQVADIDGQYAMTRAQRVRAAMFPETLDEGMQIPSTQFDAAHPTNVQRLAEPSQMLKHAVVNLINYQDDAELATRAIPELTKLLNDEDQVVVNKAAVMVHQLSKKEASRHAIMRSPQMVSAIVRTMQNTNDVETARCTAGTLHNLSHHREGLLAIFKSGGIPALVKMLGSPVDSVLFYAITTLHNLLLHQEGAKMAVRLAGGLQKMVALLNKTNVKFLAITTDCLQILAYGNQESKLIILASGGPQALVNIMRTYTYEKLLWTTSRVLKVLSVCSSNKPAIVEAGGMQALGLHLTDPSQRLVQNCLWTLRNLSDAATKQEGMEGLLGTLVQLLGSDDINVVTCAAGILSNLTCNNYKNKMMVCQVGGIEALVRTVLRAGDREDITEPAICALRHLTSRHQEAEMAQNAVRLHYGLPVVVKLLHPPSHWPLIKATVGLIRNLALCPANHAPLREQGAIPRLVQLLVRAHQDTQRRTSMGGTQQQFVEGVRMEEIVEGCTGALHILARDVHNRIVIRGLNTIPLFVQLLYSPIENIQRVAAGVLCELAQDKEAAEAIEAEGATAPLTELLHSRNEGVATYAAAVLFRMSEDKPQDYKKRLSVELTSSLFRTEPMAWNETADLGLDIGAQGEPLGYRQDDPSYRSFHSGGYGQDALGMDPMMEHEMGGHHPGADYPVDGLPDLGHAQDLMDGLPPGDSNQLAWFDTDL

B1: I-1537 (peptide)
peptide: Ac-[αAllylPro]D[hLeu][B5(15)]DEAAF[hSer][S8]F[Bta]Q-NH2
modifications: staple 1-4, 4-11; not fully specified; printed as Ac-PL3-Asp-Hleu-B5-Asp-Glu-Ala-Ala-Phe-Hse-S8-Phe-BztA-Gln-NH2
B2: I-1542 (peptide)
peptide: Ac-[αAllylPro]DQ[B5(15)]DEAAF[hSer][S8]F[Bta]Q-NH2
modifications: staple 1-4, 4-11; not fully specified; printed as Ac-PL3-Asp-Gln-B5-Asp-Glu-Ala-Ala-Phe-Hse-S8-Phe-BztA-Gln-NH2
B3: I-2268 (peptide)
peptide: Ac-[αAllylPro]D[tBuAla][B5(3)]D[Phe(3-COOH)]AAFL[PyrS2(4)][3Thi][Bta]NAAAAA-NH2
modifications: staple 1-4, 4-11; reading uncertain; also: printed as Ac-PL3-Asp-Npg-B5-Asp-3COOHF-Ala-Ala-Phe-Leu-PyrS2-3Thi-BztA-Asn-Ala-Ala-Ala-Ala-Ala-NH2
B4: I-2271 (peptide)
peptide: Ac-[αAllylPro]D[tBuAla][B5(3)]D[Phe(3-COOH)]AAFL[PyrS2(4)][3Thi][Bta]NA[Aib]A-NH2
modifications: staple 1-4, 4-11; reading uncertain; also: printed as Ac-PL3-Asp-Npg-B5-Asp-3COOHF-Ala-Ala-Phe-Leu-PyrS2-3Thi-BztA-Asn-Ala-Aib-Ala-NH2

The target in one experiment is T1, B-cat-Halo (beta-catenin HaloTag …). Briefly: cell-based or functional assay.
As to B1, the “NanoBRET Abs IC50” value came out at 13.9 µM. In the case of B2, the “NanoBRET Abs IC50” value is 49.1 µM.

As for Ac-[αAllylPro]DF[B5(15)]DEAAFQ[S8]F[Bta]Q-NH2 (staple 1-4, 4-11) [I-1549], the “NanoBRET Abs IC50” value is 11.6 µM. On the same count and under the same terms, the value for Ac-[αAllylPro]D[hSer][B5(15)]DEAAF[hSer][S8]F[Bta]Q-NH2 (staple 1-4, 4-11; not fully specified) [I-1548] was > 20 µM. Take Ac-[αAllylPro]D[tBuAla][B5(23)]NNAAFN[PyrS2][3Thi][Bta]Q-NH2 (staple 1-4, 4-11) [I-1555]: the “NanoBRET Abs IC50” value amounted to 29.3 µM.

The next experiment concerns the target T2, B-cat-Halo. Briefly: cell-based or functional assay.
Turning to Ac-[αAllylPro]D[tBuAla][B5(3)]D[Phe(3-COOH)]AAFL[PyrS2″][3Thi][Bta]NA[Aib]A[Aib]A-NH2 (staple 1-4, 4-11) [I-2272], the “NanoBRET Abs IC50” value was determined as 3 µM.

With Ac-[αAllylPro]D[tBuAla][B5(3)]D[Phe(3-COOH)]AAFL[PyrS2″][3Thi][Bta]NA[Aib]A[Aib]A[Aib]A-NH2 (staple 1-4, 4-11) [I-2273], the “NanoBRET Abs IC50” value came out at 6.2 µM. For B3, the “NanoBRET Abs IC50” value is 3.1 µM. Same read-out and setting: the same measure for Ac-[αAllylPro]D[tBuAla][B5(32)]D[Phe(3-COOH)]AAFL[PyrS2][3Thi][Bta]NALL-NH2 (staple 1-4, 4-11; also: later eluting staple isomer) [I-2278]: 2.8 µM; for Ac-[αAllylPro]D[tBuAla][B5(32)]D[Phe(3-COOH)]AAFL[PyrS2][3Thi][Bta]NLLL-NH2 (staple 1-4, 4-11; also: earlier eluting staple isomer (HPLC peak)) [I-2275]: 3.5 µM.

In the case of Ac-[αAllylPro]D[tBuAla][B5(3)]D[Phe(3-COOH)]AAFL[PyrS2″][3Thi][Bta]NAAAAAAA-NH2 (staple 1-4, 4-11) [I-2269], the “NanoBRET Abs IC50” value amounted to 2.3 µM. The same measure, in the same setting: the value for B4 was 2.3 µM. As to Ac-[αAllylPro]D[tBuAla][B5(32)]D[Phe(3-COOH)]AAFL[PyrS2][3Thi][Bta]NLLLLL-NH2 (staple 1-4, 4-11; also: earlier eluting staple isomer) [I-2279], the “NanoBRET Abs IC50” value was > 20 µM. Same read-out and setting: the value for Ac-[αAllylPro]D[tBuAla][B5(32)]D[Phe(3-COOH)]AAFL[PyrS2][3Thi][Bta]NALL-NH2 (staple 1-4, 4-11; also: earlier eluting staple isomer) [I-2277] was 2.3 µM; that for Ac-[αAllylPro]D[tBuAla][B5(3)]D[Phe(3-COOH)]AAFL[PyrS2″][3Thi][Bta]NL-NH2 (staple 1-4, 4-11) [I-2274] was 2 µM.

Source of the values: US20240116985A1 (published 2024).
